Sequences and labels used below:
B1: Chromodomain-helicase-DNA-binding protein 3, residues 374 to 426; numbered along this chain, Q12873 (parent)
chain: YETDHQDYCEVCQQGGEIILCDTCPRAYHLVCLDPELDRAPEGKWSCPHCEKE

This passage reports abundance fitness results from the Human Domainome abundance scans (Beltran et al. 2025).

± gives the uncertainty stated by the source.

The data set covers variants of B1. The experiment in a line: abundance fitness (aPCA) (normalised: wild type 0, dead -1); higher = more abundant; growth selection in yeast, the domain comes from the species named. Particulars: Homo sapiens.
For the variant D22C, the abundance fitness was -0.229 ± 0.18.

On to D22Q, for which the abundance fitness was 0.557 ± 0.18.

Consider D22T, for which the abundance fitness was -0.222 ± 0.16. For D22L the value was -0.171 ± 0.14; for D22M, 0.008 ± 0.28; for D22S, 0.048 ± 0.15. For D22Y the value was -0.142 ± 0.22; for D22V, -0.204 ± 0.12. For D22P the value was -0.109 ± 0.18; for D22G, -0.191 ± 0.16. Turning to D22A, the abundance fitness was -0.31 ± 0.27. To D22N belongs -0.008 ± 0.15; to D22F, -0.344 ± 0.19; to D22R, 0.053 ± 0.14.

For D22W, the abundance fitness was -0.013 ± 0.17. To D22I belongs -0.021 ± 0.24; to D22H, -0.388 ± 0.28.

Turning to E17F, the abundance fitness is -0.162 ± 0.14.

Consider E17S, for which the abundance fitness is -0.087 ± 0.094.

Consider E17H, for which the abundance fitness is -0.882 ± 0.33. For E17A the value was -0.081 ± 0.1; for E17M, 0.152 ± 0.13. For E17T the value was 0.053 ± 0.12. Regarding E17V, the abundance fitness is -0.489 ± 0.11. On to E17I, for which the abundance fitness was -0.353 ± 0.2. To E17P belongs -0.558 ± 0.14; to E17G, -0.234 ± 0.094. To E17R belongs -0.148 ± 0.085; to E17L, -0.258 ± 0.11. As to E17Q, the abundance fitness is -0.147 ± 0.14. To E17N belongs 0.07 ± 0.17. For E17D the value was -0.047 ± 0.13. On to E17Y, for which the abundance fitness was -0.031 ± 0.17. For E17C the value was -0.037 ± 0.11; for A27K, -0.407 ± 0.41; for E10Y, 0.158 ± 0.12. On to V11M, for which the abundance fitness is 0.279 ± 0.083. To V11R belongs 0.12 ± 0.072; to V11E, 0.277 ± 0.08; to V11Q, -0.217 ± 0.098. To V11D belongs 0.178 ± 0.089; to V11A, -0.143 ± 0.079.

For the variant V11S, the abundance fitness came to 0.284 ± 0.068. For V11F the value was 0.138 ± 0.095. To V11N belongs 0.182 ± 0.094; to V11Y, 0.085 ± 0.1; to V11L, 0.145 ± 0.073. For V11T the value was 0.269 ± 0.078; for V11C, 0.184 ± 0.089; for V11H, 0.362 ± 0.11.

As for V11K, the abundance fitness was 0.258 ± 0.087.

Turning to V11P, the abundance fitness was found to be 0.029 ± 0.087. With V11W, the abundance fitness was -0.266 ± 0.089. For C12D the value was -0.7 ± 0.34; for C12A, -0.712 ± 0.15; for C12E, -0.83 ± 0.16. For C12V the value was -0.78 ± 0.14; for C12G, -0.845 ± 0.11. In the case of C12Y, the abundance fitness was -0.871 ± 0.13.

On to C12S, for which the abundance fitness was -0.956 ± 0.11. For C12H the value was -0.999 ± 0.17; for C12W, -0.836 ± 0.11. In the case of C12R, the abundance fitness is -0.954 ± 0.094. Take C12T: the abundance fitness is -0.813 ± 0.12. For C12I the value was -0.947 ± 0.2; for C12K, -0.757 ± 0.15; for C12F, -0.903 ± 0.23. As for C12L, the abundance fitness was -0.866 ± 0.099.

On to C12P, for which the abundance fitness was -0.76 ± 0.13. C12N: the abundance fitness was -0.67 ± 0.17. On to I18P, for which the abundance fitness is -0.191 ± 0.12.

Turning to I18H, the abundance fitness came out at 0.063 ± 0.16. To I18N belongs -0.218 ± 0.18; to I18V, -0.297 ± 0.11. For I18L, the abundance fitness was -0.022 ± 0.099. To I18Q belongs -0.107 ± 0.14. Consider I18A, for which the abundance fitness came to 0.024 ± 0.1. Turning to I18S, the abundance fitness was -0.26 ± 0.12. For I18E the value was 0.13 ± 0.14; for I18C, -0.521 ± 0.19. For I18R the value was -0.12 ± 0.091. Regarding I18F, the abundance fitness was -0.071 ± 0.15.

Consider I18G, for which the abundance fitness was -0.087 ± 0.11.

Consider I18W, for which the abundance fitness is -0.152 ± 0.14. For I18T the value was 0.131 ± 0.14. With I18Y, the abundance fitness was 0.162 ± 0.13. I18K: the abundance fitness was -0.124 ± 0.15.

As to L20G, the abundance fitness is 0.208 ± 0.099. To L20D belongs 0.015 ± 0.16; to L20E, -0.003 ± 0.14. As to L20K, the abundance fitness is 0.081 ± 0.11. For L20Q the value was -0.143 ± 0.13; for L20S, 0.171 ± 0.095. As for L20Y, the abundance fitness turned out to be 0.102 ± 0.16. To L20I belongs 0.076 ± 0.17.

As to L20R, the abundance fitness came to 0.149 ± 0.094. To L20F belongs 0.037 ± 0.15; to L20V, -0.078 ± 0.099; to L20M, 0.047 ± 0.12. For the variant L20C, the abundance fitness amounted to 0.01 ± 0.15. As for L20W, the abundance fitness is -0.205 ± 0.16. L20T: the abundance fitness was 0.262 ± 0.098.

L20N: the abundance fitness amounted to 0.101 ± 0.15. Regarding L20P, the abundance fitness stood at 0.402 ± 0.11. To P25W belongs -0.144 ± 0.14. To P25C belongs 0.04 ± 0.18; to P25Q, -0.39 ± 0.23. For P25D the value was -0.482 ± 0.28.

On to P25H, for which the abundance fitness was -0.249 ± 0.26. For P25A the value was 0.092 ± 0.14; for P25S, -0.116 ± 0.13; for P25R, -0.235 ± 0.12. To P25M belongs -0.227 ± 0.24; to P25T, -0.004 ± 0.14; to P25I, -0.261 ± 0.33. To P25K belongs -0.385 ± 0.18; to P25N, -0.204 ± 0.4.

P25F: the abundance fitness is -0.021 ± 0.37.

G15W: the abundance fitness is -0.121 ± 0.2. G15A: the abundance fitness is 0.329 ± 0.18.

As for G15N, the abundance fitness is -0.065 ± 0.27. To G15Y belongs -0.03 ± 0.26; to G15V, -0.609 ± 0.21.

As to G15E, the abundance fitness is -0.202 ± 0.19.

As to G15L, the abundance fitness was -0.366 ± 0.21. To G15T belongs 0.088 ± 0.18; to G15Q, -0.434 ± 0.27. For G15M the value was 0.084 ± 0.21; for G15D, -0.21 ± 0.27. For G15K the value was 0.112 ± 0.27; for G15P, -0.488 ± 0.31; for G15C, -0.823 ± 0.34. In the case of V31G, the abundance fitness was -0.094 ± 0.13.

As to V31W, the abundance fitness was -0.26 ± 0.14.

V31Q: the abundance fitness was -0.012 ± 0.13.

In the case of V31A, the abundance fitness turned out to be 0.158 ± 0.12. To V31K belongs -0.132 ± 0.15; to V31H, 0.038 ± 0.13.

Regarding V31L, the abundance fitness is -0.17 ± 0.094. To V31I belongs -0.245 ± 0.12; to V31F, -0.09 ± 0.12. To V31Y belongs -0.297 ± 0.17; to V31C, -0.254 ± 0.15.

For the variant V31S, the abundance fitness was -0.061 ± 0.096. To V31T belongs -0.3 ± 0.11; to V31M, -0.03 ± 0.12. To V31N belongs -0.314 ± 0.12; to V31E, -0.229 ± 0.14; to V31D, -0.18 ± 0.15. For I19D the value was -0.248 ± 0.14.

In the case of I19Q, the abundance fitness turned out to be 0.068 ± 0.16.

As to I19L, the abundance fitness was found to be 0.093 ± 0.097. To I19V belongs -0.153 ± 0.1. For I19N the value was 0.167 ± 0.22; for I19R, -0.101 ± 0.1; for I19K, 0.19 ± 0.13. To I19G belongs -0.177 ± 0.087. As for I19H, the abundance fitness is -0.111 ± 0.25.

Take I19F: the abundance fitness was -0.277 ± 0.22. To I19M belongs 0.313 ± 0.14.

In the case of I19Y, the abundance fitness is 0.117 ± 0.18.

For the variant I19S, the abundance fitness was -0.162 ± 0.11. With I19T, the abundance fitness came to 0.051 ± 0.11. To C21M belongs -0.901 ± 0.21. For C21P the value was -0.984 ± 0.34. For C21E the value was -1.15 ± 0.28. Consider C21H, for which the abundance fitness is -0.806 ± 0.25.
